Measured values reported in the nanobody polyreactivity screen of Harvey et al. (2022).

test: yeast display, Sf9 membrane polyspecificity reagent, FACS + sequencing; frameworks hold sequencing errors
Method in brief: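 A nanobody's polyreactivity label depends on the gate it was sorted from. Yeast display cells were stained with 10% biotinylated, detergent-solubilized Sf9 membrane reagent for 1 hour at 4 °C, enriched on streptavidin microbeads and sorted by FACS. The low and high (top ~1%) gates were set on anti-HA fluorescence for expression and streptavidin fluorescence for reagent binding.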

Question: For “QVQLVESGGGLVQAGGSLRLSCAASGLTFKRYAMGWYRQAPGKERELVASITGNGGSTYYADSVKGRFTISRDNAKNTFYLQMNSLKPEDTAVYYCNVGYRGWSVNSWGQGTQVTVSS”, which “polyreactivity (PSR sort gate)” value is on record?
Answer: high polyreactivity

Question: For “QVQLVESGGGVVQAGGRLRLSCAASGGIYRYYAMGWYRQAPGKERELVAVITKSGGDTYYADSVKGRFTISRDNAKNTVYLQMNSLKPEDTAVYYCAAVYGYYTYWIAGFTWAGDYWGQGTQVTVSS”, which “polyreactivity (PSR sort gate)” value is on record?
Answer: low polyreactivity

Question: With “QVQLVESGGGLVQAGGSLRLSCAASGFTFLYNARGWYIQAPGKERELVASINSGGSTNYADSVKGRFTISRDNAKNTVYLQKNSLKPEDTAVYYWNAKRHVRKGDYWGQGTQVTVSS” as the sequence, how does the “polyreactivity (PSR sort gate)” value read?
Answer: low polyreactivity

Question: Which “polyreactivity (PSR sort gate)” value does the source give for “QVQLVESGGGLVQAGGSLRLSCAASASTTYYAMGWYRQAPGKERELVAAISFSGGSTFYADSVKGRFTISRDNAKNTVYLQMNCLKPEDTGVYYCATQEGPHKLDPRGYYWGQGTQVTVSS” here?
Answer: low polyreactivity

Question: With “QVQLVESGGGLVQAGGSLRLICAASGRTFKYKAMGWSRQAPGKERELVAVISRGGSTYADSVKGRFTISRDNAKNTVYLQMNSLKAEDTAVYYCAVGRNSRQASERYGWYKYDYWGQGTQVTVSS” as the sequence, how does the “polyreactivity (PSR sort gate)” value read?
Answer: high polyreactivity

Question: For “QVQLVESGAGLVQAGGSLRLSCAASGITFSKYAMGWYRVARGKDRELVAAISSTASTNYADSVKGRFTISRDNAKNTVYLQMNSQKPDDTAVYYCNDVLFFQLFWTYDDYWGQGSQVTVSS”, which “polyreactivity (PSR sort gate)” value is on record?
Answer: low polyreactivity

Question: For “QVQLVESGGGLVQAGGSLRLSCAASGRTFTEYAMGWYSQAHGKERELVARISIGDSTYYADSVKGRFTISRDNAKNTVYLQMNSLKPEDTAVFYCNAEYSRSYRYDEGYWGQGTQVTVSS”, which “polyreactivity (PSR sort gate)” value is on record?
Answer: low polyreactivity

Question: Which “polyreactivity (PSR sort gate)” value does the source give for “QVQLVESGGGLVQAGGSLRLSCAASGRILGRYAMGWYRQAPGKERELVATITSGDDTNYADSVKGRFTISRDNAKNTVYLQMNSLKPEDTAVGYWGQGTQVTVSS” here?
Answer: low polyreactivity

Question: With “QVQLVESGGGLVQAGGSLRLSCAASGRTLHYYAMGWYRQAPGKERELVARINWSGGSTYYADSVKGRFTISRDNAKNTVYLQMNCLKPEDTAVYYCARTSYYWSSFDYWGQGTQVTVSS” as the sequence, how does the “polyreactivity (PSR sort gate)” value read?
Answer: high polyreactivity

Question: For “QVQLVESGGGSVQAGGSLRLSCAASGSTFVANTMGWYRQAPGKERELVASITSGDSTNYADSVKGRFTISRDNAKNTVYLQMNSLKPEDTAVYYCAAESVWYYVGGQLIYYYWGQGTQVTVSS”, which “polyreactivity (PSR sort gate)” value is on record?
Answer: low polyreactivity

Question: With “QVQLVESGGGLVQAGGSLRLSCAASGLTFWKNVMGWYRQAPGKERELVAAISWSGDSTYYADSVKGRFTISRDNAKNTVYLQMNSLKPEDTAVYYCAARYVSRYWAGRYPTRQRDSWGQGTQVTVSS” as the sequence, how does the “polyreactivity (PSR sort gate)” value read?
Answer: high polyreactivity

Question: For “QVQLVESGGGLVQAGGSLRLSCAASGFTFDYNTMGWYRQAPGKEIELVAGISRGGGSTYYADSVKGRFTISRDNAKNTVYLQMNSLKPEVTAVYYCNTVLKRQRKNEYWGQGTQVTVSS”, which “polyreactivity (PSR sort gate)” value is on record?
Answer: high polyreactivity

Question: With “QVQLVESGGGLVQAVGSLRLSCAASGRIFRHNAMGWYRQAPGKEWELVAAISGGGTTYYADSVKGRFTISRDNAKNTVYLQMNSLKPEDTAVYYCAARRRGSVGVGYAYAYYYWGQGTQVTVSS” as the sequence, how does the “polyreactivity (PSR sort gate)” value read?
Answer: high polyreactivity

Question: Which “polyreactivity (PSR sort gate)” value does the source give for “QVQLVESGGGLVQAGGSLRLSCSASGSTFYRYAMGWYRQAPGKERELVATITSGGSTHYADSVKGRFTISRDNAKNTVYLQMNSLKPEDTAVYYAATTSDWYTTINVVYRYYYWGQGTQVTVSS” here?
Answer: high polyreactivity

Question: Which “polyreactivity (PSR sort gate)” value does the source give for “QVQLVESGGGLVQAGASLRLSCAASGRIFVVNAMGWYRQAPGKERELVATITRSGGITYYADSVKGRFTISRDNAKNTVYLQMNSLKPEDTAVYYCNADVLFYTYYTRGRFDFDYWGQGSQVTVSS” here?
Answer: low polyreactivity

Question: For “QDQLVESGGGLVQAGGSLRLSFAASGSTFFTYPMGWYRQDPGKERELVAAITLNGGSTYYADSVKGRFTISRDNAKNTVYLQMISLKPEDTAVYYCAAEVPDTDYNYWGQGTQVTVSS”, which “polyreactivity (PSR sort gate)” value is on record?
Answer: low polyreactivity

Question: With “QVQLVESGGGLVQAGGSLRLSCAASGRTFPGYAMGWYRQAPGKERELVATITFSDGSTYYADSVKGRFTISRDNAKNSVYLQMNSLKQEDTAVYYCNARRSYFLRYGVNYWGQGNQVTVSS” as the sequence, how does the “polyreactivity (PSR sort gate)” value read?
Answer: low polyreactivity
